The record followed here is the nanobody polyreactivity screen of Harvey et al. (2022).

This data set in a line: yeast display, Sf9 membrane polyspecificity reagent, FACS + sequencing; frameworks hold sequencing errors. In outline: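 In a synthetic yeast display library (Saccharomyces cerevisiae BJ5465), nanobody expression was induced with galactose for 36–48 hours. FACS gates were set low and high (top ~1%) using anti-HA fluorescence for expression and streptavidin fluorescence for binding of the Sf9 membrane reagent. Each polyreactivity label is drawn from the gate of origin.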
With “QVQLVESGGGLVQAGGSLRLSCAASGRIFSPYAMGWYRQAPGKERELVAAINYSGSRTYYADSVTGRFTISRDNAKNTVYLQMNSLKPEDTAVYYCARPWAPSSRGNGYWGLGTQVTVSS”, the “polyreactivity (PSR sort gate)” value is recorded as “high polyreactivity”.
Then “QVQLVESGGGLVQAGGSLRLSCAASGRIFSRNAMGWYRQAPGKERELVAAISRSGGSTYYADSVKGRFTISRDNAKNTVYLQMNSLKPEDTAVYYCNTRYRPVKGSGPRYDYWGQGTQVTVSS”, with “low polyreactivity”; and “QVQLVESGGGLVQAGGSLRLSCAASGRIFSRNAMGWYRQAPGKERELVAAITWRGGNTYYAHSVKGRFTISRDNAKNTVYLQMNSLKPEDTAVYYCAADYLRWAGRYFSWDYDYWGQGTQVTVSS”, with “high polyreactivity”.
For “QVQLVESGGGLVQAGGSLRLSCAASGRIFSRSAMGWYRQAPGKERELVAAIRWSTGSTNYADSVKGRFTISRDNAKNTVYLQMNSLKPEDTAVYYCNARYYVRPYSPGYYYWGQGTQVTVSS”, the “polyreactivity (PSR sort gate)” value is “high polyreactivity”.
Then “QVQLVESGGGLVQAGGSLRLSCAASGRIFSRYAMGWDRQAPGKERELVAAINNGGSTYYADSVKGRFTISRDNAKNTVYLQMNSLKPEDTAVYYCAKLWWSNFKPVEYWGQGTQVTVSS”, with “low polyreactivity”; and “QVQLVESGGGLVQAGGSLRLSCAASGRIFSRYAMGWYRQAPGKERELVAAIASSGTTTYYADSVKGRFTISRDIAKNTVYLQMNSLKAEDTAVYYCATSAVRHIYWGQGTQVTVSS”, with “high polyreactivity”; and “QVQLVESGGGLVQAGGSLRLSCAASGRIFSRYAMGWYRQAPGKERELVAAIRSNGGRTYYADSVKGRFTISRDNAKNTVYLQMNSLKPEDTAVYYCAAAGGGKVSYRDYDYWGQGTQVTVSS”, with “high polyreactivity”.
Then “QVQLVESGGGLVQAGGSLRLSCAASGRIFSRYAMGWYRQAPGKERELVASIRITGSTYYADSVKGRFTISRDNAKTTVYLQMNSLKPEDTAVYYCAAYQYRLGNIRLNYWGQGTQVTVSS”, with “high polyreactivity”.
Then “QVQLVESGGGLVQAGGSLRLSCAASGRIFSRYAMGWYRQAPGKERELVATISSGGGTYYADSVKGRFTISRDTAKNTVYLQMNSLKPEDTAVYYCAAASYSGHGRYDDWGQGTQVSVSS”, with “high polyreactivity”; and “QVQLVESGGGLVQAGGSLRLSCAASGRIFSRYAMGWYRQAPGKERELVAVISRSGADTYYADSVKGRFTISRDNAKNTVYLQMNSLKPEDTAVYYCNAYSARRPHPMGYDYWGQGTQVTVSS”, with “high polyreactivity”; and “QVQLVESGGGLVQAGGSLRLSCAASGRIFSRYVMGWYRQAPGKEREFFASITWSGSSTYYADSVKGRFTISRDNAKNTVYLQMNSLKPEDTAVYYCAALGLLSPSPCGTHISEYDSWGQGTQVTVSS”, with “low polyreactivity”.
Consider “QVQLVESGGGLVQAGGSLRLSCAASGRIFSSNAMGWYRQAPGKEREFVAAISWRTGSTYYADSVKGRFTISRDNAKNTVYLQMNSLKPEDTAVYYCNKRTGSYGYPYYYWGQGTQVTVSS”, for which the “polyreactivity (PSR sort gate)” value is “high polyreactivity”.
With “QVQLVESGGGLVQAGGSLRLSCAASGRIFSSYAMGWYRQAPGKERELVAAISKSGGNTYYADSVKGRFTISRDNAKNTVYLQMNSLKPEDTAVYYCDAVAPYTLYFWLYYWGQGTHVTVSS” the entry was “high polyreactivity”; with “QVQLVESGGGLVQAGGSLRLSCAASGRIFSSYAMGWYRQAPGKERELVAAISRGGGRTYYADSVKGRFTISRDNAKNTVYLQMNSLKPEDTAVYYCATVVRSAAYAFDYWGQGTQVTVSS”, “high polyreactivity”.
Then “QVQLVESGGGLVQAGGSLRLSCAASGRIFSSYAMGWYRQAPGKERELVAAISSRGGSTYYADSVKGRFTISRDNAKNTVYLQMNSLKPEDTAVYYCARVKYSGVVYKYDYWGQGTQVTVSS”, with “high polyreactivity”.
With “QVQLVESGGGLVQAGGSLRLSCAASGRIFSSYDMGWYRQAPGKEPELVAAISRSGARTYYADSVKGRFTISRDNAKNTVYLQMNSLKPEDTAVYYCAAEFRSWGGYRYRFNYWGQGTQVTVSS” the entry was “high polyreactivity”; with “QVQLVESGGGLVQAGGSLRLSCAASGRIFSTYAMGWYRQAPGKERELVAAISWRGSSTYYADSVKGRFTISRDNAKNTVYLQMNSLKPEDTAVYYCNADKANRYDWGQGTQVTVSS”, “high polyreactivity”; with “QVQLVESGGGLVQAGGSLRLSCAASGRIFSTYAMGWYRQAPGKERELVAAISYSGTTTYYADSVKGRFTISRDNAKNTVYLQLNRLKPEDTAVYYCAAYRYSSWAYGRDYYWGQGTQVTVSS”, “high polyreactivity”.
As for “QVQLVESGGGLVQAGGSLRLSCAASGRIFSVNAMGWYRQAPGKERELVAAITTRGGTTYYADSVKGRFTISRDNAKNTVSLQMNSLKPEDTAVYYCAAESSWYVYWEWAHDYWGQGTQVTVSS”, the “polyreactivity (PSR sort gate)” value is “low polyreactivity”.
Regarding “QVQLVESGGGLVQAGGSLRLSCAASGRIFSVNAMGWYRQAPGKERELVASISWSGGSTYYADSVKGRFTISRDNAKNTVYLQMNSLKPEDTAVYYCARGYWVYYPDGDYWGQGTQVTVSS”, the “polyreactivity (PSR sort gate)” value was “low polyreactivity”.
As to “QVQLVESGGGLVQAGGSLRLSCAASGRIFSVNAMGWYRQAPGNERELVAAMTSGDSTNYADSVKGRFTISRDNAKNTVYLQMNSLKPEDNAVYYCNARGSQELWRRKWYHTEYDYWGQGTQVTVSS”, the “polyreactivity (PSR sort gate)” value is listed as “low polyreactivity”.
Then “QVQLVESGGGLVQAGGSLRLSCAASGRIFSVYAMGWYRPAPGKERELVAAITRVGSTNYADSVKGRFTISRDNAKNTVYLQMNSLKPEDTAVYYCAASKYGSLSGYWGQGTQVTVSS”, with “high polyreactivity”; and “QVQLVESGGGLVQAGGSLRLSCAASGRIFSVYVMGWYRPAPGKERELVAAISGRDGTTYYADSVKGRFTISRDNAKNTVYLQMNSLKPEDTAVYYCAAEDIDFTPMDYWGQGTQVTVSS”, with “high polyreactivity”; and “QVQLVESGGGLVQAGGSLRLSCAASGRIFSVYVMGWYRQAPGKERELVAAITRSGGRTYYADSVKGRFTISRDNAKNTVYLQMNSLKPDDTAVYYCAARVKGYAYNYWGQGTQVTVSS”, with “high polyreactivity”.
With “QVQLVESGGGLVQAGGSLRLSCAASGRIFSWYTMGRYRQAPGKERELVADITYSGGSTYYADSVKGRFTISRDNAKNTVYLQMNSLKPEDTAVYYCNADPRWYHFEYGYWGQGTQVTVSS” the entry was “high polyreactivity”; with “QVQLVESGGGLVQAGGSLRLSCAASGRIFSWYTMGWYRQAPGKERELVAAISWSGTSTYYADSVKGRFTISRDNAKNTVYLQMNSLKPEDTAVYYCARVLSPYYSTRYDHWGQGTQVTVSS”, “high polyreactivity”; with “QVQLVESGGGLVQAGGSLRLSCAASGRIFSYNAMGWDRQAPGKERELVSAISYGGGRTYYADSVKGRFTISRYNAKNTVYLQMNSLKPEDTAVYYCNRYGRQYDFFYWGQGTQVTGSS”, “high polyreactivity”.
On to “QVQLVESGGGLVQAGGSLRLSCAASGRIFSYNAMGWYRQAPGKERELVAASTFSGGGTYYADSVKGRYTISRDNAKNPVYLQMNSLKPEDTAVYYCNNLSYGYSTYGYWGQGTQVTVSS”, for which the “polyreactivity (PSR sort gate)” value is “low polyreactivity”.
In the case of “QVQLVESGGGLVQAGGSLRLSCAASGRIFSYYAMGWYRKAPGKERELVAAITSAGGTNYAVSVKGRFTISRDNAKITVYLQMNSLKPEDTAVYYCAADSSVLQNYYRYRYPYVTYNYWGQGTQVTVSS”, the “polyreactivity (PSR sort gate)” value is given as “low polyreactivity”.
“QVQLVESGGGLVQAGGSLRLSCAASGRIFSYYAMGWYRQAPGKERELVAAISRGGTTNYADSVKGRFTISRDNAKNTVYLQMNSLKPEDTAVYYCNRDFHLIHLSSARLDYWGQGTQVTVSS”: the “polyreactivity (PSR sort gate)” value is “low polyreactivity”.
